B1: MNAT1 (parent)
chain: LAPIHKLEEALYEYQPLQIETYGP
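Also: lentivirally expressed fusions sorted by FACS into six bins by GFP to DsRed ratio, PSI derived from sequencing read proportions per bin multiplied by bin number.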

Variants of B1 are the subject of this data set. Description: protein stability index of a GFP-peptide fusion (GPS, HEK-293T) (PSI 1-6); higher = more stable. Conditions: c terminus: a fixed tail appended.
Regarding LAPIHKLEEALYEYQPLQIEMYGP, the protein stability index stood at 3.53.
With LAPIHKLEEALYEYQPLQIEGYGP, the protein stability index was determined as 1.98.
Regarding LAPIHKLEEALYEYQPLQIEFYGP, the protein stability index was determined as 5.16.
Turning to LAPIHKLEEALYEYQPLQIEEYGP, the protein stability index came to 1.8.
As for LAPIHKLEEALYEYQPLQIEQYGP, the protein stability index was 1.57.
For the variant LAPIHKLEEALYEYQPLQIELYGP, the protein stability index was determined as 3.23.
The result for LAPIHKLEEALYEYQPLQIEDYGP reads 2.31.
As to LAPIHKLEEALYEYQPLQIESYGP, the protein stability index came to 2.23.
Turning to LAPIHKLEEALYEYQPLQIENYGP, the protein stability index is 2.5.
Regarding LAPIHKLEEALYEYQPLQIEAYGP, the protein stability index came to 2.6.
LAPIHKLEEALYEYQPLQIEWYGP: the protein stability index amounted to 3.09.
As for LAPIHKLEEALYEYQPLQIEKYGP, the protein stability index turned out to be 2.5.
Consider LAPIHKLEEALYEYQPLQDETYGP, for which the protein stability index was determined as 4.07.
The result for LAPIHKLEEALYEYQPLQFETYGP reads 1.85; that for LAPIHKLEEALYEYQPLQGETYGP, 2.85; that for LAPIHKLEEALYEYQPLQQETYGP, 3.62.
The result for LAPIHKLEEALYEYQPLQTETYGP reads 2.61; that for LAPIHKLEEALYEYQPLQLETYGP, 2.89.
On to LAPIHKLEEALYEYQPLQRETYGP, for which the protein stability index was 3.1.
The figure for LAPIHKLEEALYEYQPLQNETYGP is 3.25; for LAPIHKLEEALYEYQPLQMETYGP it is 2.37; for LAPIHKLEEALYEYQPLQKETYGP it is 2.99.
For the variant LAPIHKLEEALYEYQPLQEETYGP, the protein stability index stood at 3.3.
In the case of LAPIHKLEEALYEYQPLQSETYGP, the protein stability index was determined as 2.73.
LAPIHKLEEALYEYQPLQHETYGP: the protein stability index was determined as 2.85.
Turning to LAPIHKLEEALYEYQPLQPETYGP, the protein stability index was determined as 2.79.
As for LAPIHKLEEALYEYQPLQVETYGP, the protein stability index worked out at 2.63.
In the case of LAPIHKLEEALYEYQPLQYETYGP, the protein stability index amounted to 1.92.
The result for LAPIHKLEEALYEYQPLQWETYGP reads 2.32.
Take LAPIHKLEEALYEYEPLQIETYGP: the protein stability index stood at 2.36.
Consider LAPIHKLEEALYEYAPLQIETYGP, for which the protein stability index is 2.17.
As for LAPIHKLEEALYEYFPLQIETYGP, the protein stability index was found to be 1.17.
Take LAPIHKLEEALYEYSPLQIETYGP: the protein stability index worked out at 2.07.
In the case of LAPIHKLEEALYEYYPLQIETYGP, the protein stability index worked out at 1.44.
In the case of LAPIHKLEEALYEYLPLQIETYGP, the protein stability index is 1.73.
For the variant LAPIHKLEEALYEYVPLQIETYGP, the protein stability index worked out at 1.44.
LAPIHKLEEALYEYRPLQIETYGP: the protein stability index is 2.03.
As to LAPIHKLEEALYEYCPLQIETYGP, the protein stability index amounted to 1.05.
The figure for LAPIHKLEEALYEYDPLQIETYGP is 2.94.
For the variant LAPIHKLEEALYEYIPLQIETYGP, the protein stability index came out at 1.66.
The figure for LAPIHKLEEALYEYKPLQIETYGP is 2.26; for LAPIHKLEEALYEYGPLQIETYGP it is 1.52.
On to LAPIHKLEEALYEYMPLQIETYGP, for which the protein stability index was 1.94.
Turning to LAPIHKLEEALYEYHPLQIETYGP, the protein stability index worked out at 2.08.
LAPIHKLEEALYEYNPLQIETYGP: the protein stability index amounted to 1.83.
The result for LAPIHKLEEALYEYTPLQIETYGP reads 2.2.
As for LAPIHKLEEALCEYQPLQIETYGP, the protein stability index worked out at 1.82.
Regarding LAPIHKLEEALSEYQPLQIETYGP, the protein stability index came out at 1.87.
On to LAPIHKLEEALWEYQPLQIETYGP, for which the protein stability index was 2.39.
Consider LAPIHKLEEALPEYQPLQIETYGP, for which the protein stability index was determined as 2.23.
The figure for LAPIHKLEEALTEYQPLQIETYGP is 2.24; for LAPIHKLEEALMEYQPLQIETYGP it is 2.25.
On to LAPIHKLEEALEEYQPLQIETYGP, for which the protein stability index worked out at 2.65.
The figure for LAPIHKLEEALHEYQPLQIETYGP is 1.54; for LAPIHKLEEALVEYQPLQIETYGP it is 2.13; for LAPIHKLEEALFEYQPLQIETYGP it is 1.19.
In the case of LAPIHKLEEALAEYQPLQIETYGP, the protein stability index is 1.27.
In the case of LAPIHKLEEALGEYQPLQIETYGP, the protein stability index is 2.64.
On to LAPIHKLEEALIEYQPLQIETYGP, for which the protein stability index came to 2.64.
For the variant LAPIHKLEEALKEYQPLQIETYGP, the protein stability index was 1.93.
Turning to LAPIHKLEEALREYQPLQIETYGP, the protein stability index amounted to 2.19.
In the case of LAPIHKLEEALNEYQPLQIETYGP, the protein stability index amounted to 3.07.
With LAPIHKLEEALLEYQPLQIETYGP, the protein stability index was found to be 2.21.
On to LAPIHKLEEALQEYQPLQIETYGP, for which the protein stability index amounted to 1.88.
In the case of LAPIHKLEEALDEYQPLQIETYGP, the protein stability index was 3.07.
On to LAPIHKLEEALYEYQPLQIETNGP, for which the protein stability index stood at 2.74.
The figure for LAPIHKLEEALYEYQPLQIETKGP is 2.8; for LAPIHKLEEALYEYQPLQIETPGP it is 2.88; for LAPIHKLEEALYEYQPLQIETMGP it is 2.01.
In the case of LAPIHKLEEALYEYQPLQIETRGP, the protein stability index was 1.73.
The figure for LAPIHKLEEALYEYQPLQIETIGP is 1.81; for LAPIHKLEEALYEYQPLQIETLGP it is 2.63.
Take LAPIHKLEEALYEYQPLQIETHGP: the protein stability index worked out at 1.91.
LAPIHKLEEALYEYQPLQIETEGP: the protein stability index was 3.19.
For the variant LAPIHKLEEALYEYQPLQIETFGP, the protein stability index was 3.02.
As to LAPIHKLEEALYEYQPLQIETAGP, the protein stability index came out at 2.18.
The result for LAPIHKLEEALYEYQPLQIETCGP reads 1.96.
The figure for LAPIHKLEEALYEYQPLQIETQGP is 2.66; for LAPIHKLEEALYEYQPLSIETYGP it is 1.86; for LAPIHKLEEALYEYQPLVIETYGP it is 2.25.
The figure for LAPIHKLEEALYEYQPLNIETYGP is 1.92.
Regarding LAPIHKLEEALYEYQPLLIETYGP, the protein stability index worked out at 1.28.
In the case of LAPIHKLEEALYEYQPLCIETYGP, the protein stability index is 2.21.
LAPIHKLEEALYEYQPLGIETYGP: the protein stability index came to 1.51.
Regarding LAPIHKLEEALYEYQPLIIETYGP, the protein stability index is 1.94.
The figure for LAPIHKLEEALYEYQPLPIETYGP is 2.76; for LAPIHKLEEALYEYQPLAIETYGP it is 1.84; for LAPIHKLEEALYEYQPLDIETYGP it is 3.99.
Consider LAPIHKLEEALYEYQPLFIETYGP, for which the protein stability index stood at 2.9.
Take LAPIHKLEEALYEYQPLHIETYGP: the protein stability index stood at 1.91.
The result for LAPIHKLEEALYEYQPLMIETYGP reads 1.85.
LAPIHKLEEALYEYQPLYIETYGP: the protein stability index stood at 1.37.
As for LAPIHKLEEALYEYQPLEIETYGP, the protein stability index was found to be 2.08.
For the variant LAPIHKLEEALYEYQPLWIETYGP, the protein stability index was 1.96.

(Values after the supplement of paper PMC10567573.)
